Target: Man9GlcNAc2 glycopeptide isolated from soybean agglutinin (soybean, UniProt P05046, Man9GlcNAc2 oligosaccharide, N-linked)
Test: SPR; glycopeptide immobilized

Sequence of Man9GlcNAc2 glycopeptide isolated from soybean agglutinin (P05046 whole entry): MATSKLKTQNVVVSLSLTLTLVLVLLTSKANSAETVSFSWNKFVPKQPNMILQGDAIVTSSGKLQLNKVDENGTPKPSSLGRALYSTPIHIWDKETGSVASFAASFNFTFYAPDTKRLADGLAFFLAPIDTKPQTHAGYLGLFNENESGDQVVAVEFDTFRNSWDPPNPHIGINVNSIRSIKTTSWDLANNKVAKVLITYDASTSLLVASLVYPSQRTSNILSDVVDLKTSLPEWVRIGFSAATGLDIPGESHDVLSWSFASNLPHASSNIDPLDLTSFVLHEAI

B1: monomeric carbohydrate-recognition domain (CRD) from DC-SIGN (domain or fragment)
chain: ERLCHPCPWEWTFFQGNCYFMSNSQRNWHDSITACKEVGAQLVVIKSAEEQNFLQLQSSRSNRFTWMGLSDLNQEGTWQWVDGSPLLPSFKQYWNRGEPNNVGEEDCAEFSGNGWNDDKCNLAKFWICKKSAASCSRDEEQFLSPAPATPNPPPA
- Kd: 66 µM

Source: paper PMC2824085 (2010)
